Laboratory results taken from WO2012075111A1 (dated 2012).

What was measured:
human CD40 (human) = human CD40 (human) (UniProt P25942); test: Biacore
soluble CD40 = molecular target: T1, soluble CD40 (Homo sapiens (Human), UniProt P25942 20-193); test: ELISA-type assays
T1 construct: Soluble CD40 as used in ELISA-type assays; the real soluble form is shorter
T1 sequence (P25942 20-193): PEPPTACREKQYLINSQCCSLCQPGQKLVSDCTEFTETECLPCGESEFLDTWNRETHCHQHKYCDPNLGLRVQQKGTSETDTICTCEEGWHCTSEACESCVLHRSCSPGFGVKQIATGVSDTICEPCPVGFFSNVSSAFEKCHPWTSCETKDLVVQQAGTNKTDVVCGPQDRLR

B1: monoclonal antibody HCD122 (antibody, human IgG1, kappa, V domains shown)
VH: QVQLVESGGGVVQPGRSLRLSCAASGFTFSSYGMHWVRQAPGKGLEWVAVISYEESNRYHADSVKGRFTISRDNSKITLYLQMNSLRTEDTAVYYCARDGGIAAPGPDYWGQGTLVTVSS
VL: DIVMTQSPLSLTVTPGEPASISCRSSQSLLYSNGYNYLDWYLQKPGQSPQVLISLGSNRASGVPDRFSGSGSGTDFTLKISRVEAEDVGVYYCMQARQTPFTFGPGTKVDIRR
notes: Fully human IgG1 kappa anti-CD40 monoclonal antibody from the hybridoma deposited as ATCC PTA-5543; also called CHIR-12.12
- Kd (human CD40 (human)): 0.5 nM
- binding result (soluble CD40): binds
